In the supplement of paper PMC9116672:
± gives the standard deviation of the averaged measurements or the uncertainty stated by the source.

Key:
[1] = duplex formation free energy ΔG50 (Van't Hoff fit of HRM Tm); higher = less stable duplex; settings: temperature for dG: 50 °C, NaCl: 500 mM (unadjusted)
Description: (§1)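 Duplex of the listed DNA strand with its complement, in 1x NNE buffer (500 mM NaCl, pH 7.0) with 1x EvaGreen. ΔH and ΔS come from a Van't Hoff linear fit of 1/Tm against ln(CT/4) over 1-20 uM, using HRM Tm values.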

[2] = duplex melting temperature (HRM, EvaGreen); higher = more stable duplex
Description: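 Listed DNA strand annealed 1:1 with its complementary strand (95 °C 5 min, 0.1 °C/s to 20 °C). Melted in 1x NNE buffer (500 mM NaCl, 10 mM Na2HPO4, 1 mM EDTA, pH 7.0) with 1x EvaGreen on a LightCycler96 (37 to 97 °C, 0.1 °C/s). Tm is the peak of -dF/dT at the stated total duplex concentration; 4 replicates are averaged. PS oligos are non-stereospecific (Rp/Sp mixtures).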

[3] = duplex formation enthalpy ΔH (Van't Hoff fit of HRM Tm); higher = less exothermic duplex formation; settings: temperature for dG: 50 °C, NaCl: 500 mM (unadjusted)
Description: as §1

[4] = duplex formation entropy ΔS (Van't Hoff fit of HRM Tm); higher = smaller entropy loss on duplex formation; settings: temperature for dG: 50 °C, NaCl: 500 mM (unadjusted)
Description: as §1

[5] = backbone: PO-PO (both strands phosphodiester DNA)
[6] = backbone: PS-PO (listed strand fully phosphorothioate, complement phosphodiester)
[7] = backbone: PS-PS (both strands fully phosphorothioate)
[8] = duplex concentration 1 µM, backbone: PS-PO (listed strand fully phosphorothioate, complement phosphodiester)
[9] = duplex concentration 1 µM, backbone: PS-PS (both strands fully phosphorothioate)
[10] = duplex concentration 2.5 µM, backbone: PO-PO (both strands phosphodiester DNA)
[11] = duplex concentration 2.5 µM, backbone: PS-PO (listed strand fully phosphorothioate, complement phosphodiester)
[12] = duplex concentration 2.5 µM, backbone: PS-PS (both strands fully phosphorothioate)
[13] = duplex concentration 5 µM, backbone: PO-PO (both strands phosphodiester DNA)
[14] = duplex concentration 5 µM, backbone: PS-PO (listed strand fully phosphorothioate, complement phosphodiester)
[15] = duplex concentration 5 µM, backbone: PS-PS (both strands fully phosphorothioate)
[16] = duplex concentration 7.5 µM, backbone: PO-PO (both strands phosphodiester DNA)
[17] = duplex concentration 7.5 µM, backbone: PS-PO (listed strand fully phosphorothioate, complement phosphodiester)
[18] = duplex concentration 7.5 µM, backbone: PS-PS (both strands fully phosphorothioate)
[19] = duplex concentration 10 µM, backbone: PO-PO (both strands phosphodiester DNA)
[20] = duplex concentration 10 µM, backbone: PS-PO (listed strand fully phosphorothioate, complement phosphodiester)
[21] = duplex concentration 10 µM, backbone: PS-PS (both strands fully phosphorothioate)
[22] = duplex concentration 15 µM, backbone: PO-PO (both strands phosphodiester DNA)
[23] = duplex concentration 15 µM, backbone: PS-PO (listed strand fully phosphorothioate, complement phosphodiester)
[24] = duplex concentration 15 µM, backbone: PS-PS (both strands fully phosphorothioate)
[25] = duplex concentration 20 µM, backbone: PO-PO (both strands phosphodiester DNA)
[26] = duplex concentration 20 µM, backbone: PS-PO (listed strand fully phosphorothioate, complement phosphodiester)
[27] = duplex concentration 20 µM, backbone: PS-PS (both strands fully phosphorothioate)
[28] = duplex concentration 1 µM, backbone: PO-PO (both strands phosphodiester DNA)

Sequence	duplex formation free energy ΔG50 [1, 5] [kcal/mol]	duplex formation free energy ΔG50 [1, 6] [kcal/mol]	duplex formation free energy ΔG50 [1, 7] [kcal/mol]	duplex melting temperature [2, 8] [°C]	duplex melting temperature [2, 9] [°C]	duplex melting temperature [2, 10] [°C]	duplex melting temperature [2, 11] [°C]	duplex melting temperature [2, 12] [°C]	duplex melting temperature [2, 13] [°C]	duplex melting temperature [2, 14] [°C]	duplex melting temperature [2, 15] [°C]	duplex melting temperature [2, 16] [°C]	duplex melting temperature [2, 17] [°C]	duplex melting temperature [2, 18] [°C]	duplex melting temperature [2, 19] [°C]	duplex melting temperature [2, 20] [°C]	duplex melting temperature [2, 21] [°C]	duplex melting temperature [2, 22] [°C]	duplex melting temperature [2, 23] [°C]	duplex melting temperature [2, 24] [°C]	duplex melting temperature [2, 25] [°C]	duplex melting temperature [2, 26] [°C]	duplex melting temperature [2, 27] [°C]	duplex formation enthalpy ΔH [3, 5] [kcal/mol]	duplex formation enthalpy ΔH [3, 6] [kcal/mol]	duplex formation enthalpy ΔH [3, 7] [kcal/mol]	duplex formation entropy ΔS [4, 5] [cal/mol/K]	duplex formation entropy ΔS [4, 6] [cal/mol/K]	duplex formation entropy ΔS [4, 7] [cal/mol/K]	duplex melting temperature [2, 28] [°C]
AGCACGGTGGTACAACA	-12.8 ± 0.17	-12.23 ± 0.093	-9.892 ± 0.075	60.27 ± 0.38	50.09 ± 0.18	67.58 ± 0.38	63.2 ± 0.2	53.82 ± 0.069	69.83 ± 0.28	65.28 ± 0.1	56.17 ± 0.085	71.17 ± 0.15	66.25 ± 0.082	57.1 ± 0.12	72.2 ± 0.18	67.06 ± 0.081	57.92 ± 0.08	73.4 ± 0.13	68.18 ± 0.11	59.07 ± 0.11	74.39 ± 0.17	69.05 ± 0.15	59.74 ± 0.13	-71.3 ± 2.6	-78.6 ± 2	-67.6 ± 3.5	-181 ± 7.5	-205 ± 5.8	-179 ± 11	
AGCTGAGCCTGCCGCC	-16.8 ± 0.39	-13.04 ± 0.1	-12.29 ± 0.078	65.9 ± 0.78	61.14 ± 0.19	77.27 ± 0.16	69.3 ± 0.33	64.02 ± 0.13	78.56 ± 0.24	71.58 ± 0.18	66.05 ± 0.17	79.697 ± 0.042	72.92 ± 0.22	67.37 ± 0.12	80.57 ± 0.19	73.99 ± 0.21	68.22 ± 0.11	81.65 ± 0.17	75.27 ± 0.28	69.27 ± 0.11	82.38 ± 0.13	76.21 ± 0.3	70.31 ± 0.28	-98.2 ± 4.6	-69.1 ± 1.6	-75.3 ± 1.6	-252 ± 13	-174 ± 4.5	-195 ± 4.6	
AGGAGTGAATGAAATGG	-11.71 ± 0.11	-10.85 ± 0.05	-8.33 ± 0.02	54.5	43.7 ± 0.16	62.1 ± 0.68	57.08 ± 0.11	46.44 ± 0.17	64.64 ± 0.23	59.096 ± 0.041	48.39 ± 0.29	65.704 ± 0.056	60.13 ± 0.11	49.32 ± 0.19	66.73 ± 0.088	61.02 ± 0.073	50.27 ± 0.12	68.03 ± 0.15	62.13 ± 0.11	51.3 ± 0.13	69.03 ± 0.084	62.93 ± 0.16	52.15 ± 0.22	-69.7 ± 2.4	-78 ± 1.6	-73.4 ± 2.2	-179 ± 7	-208 ± 4.8	-201 ± 6.7	59.4
ATAACTTACTCTCGCCT	-12.7 ± 0.29	-10.65 ± 0.042	-9.287 ± 0.031	53.9	47.36 ± 0.27	65.26 ± 0.45	56.75 ± 0.23	50.73 ± 0.41	67.07 ± 0.61	59 ± 0.16	53.03 ± 0.18	68.39 ± 0.58	60.21 ± 0.15	54.3 ± 0.082	69.34 ± 0.46	61.01 ± 0.18	55.17 ± 0.085	70.85 ± 0.28	62.23 ± 0.12	56.32 ± 0.24	72.01 ± 0.25	63.109 ± 0.04	57.138 ± 0.039	-77.8 ± 5.4	-71.9 ± 1.4	-64.9 ± 2.1	-201 ± 16	-190 ± 4	-172 ± 6.5	63.6 ± 0.52
